Results: the supplement of paper PMC9170038

How the values were obtained:
[1] = test system: K4 kissing-loop RNA reporter; assay: apparent KD of K4 kissing-loop reporter; higher = weaker reporter binding; details: Eterna round: R107;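 further: bound reporter read as fluorescence of individual clusters on recovered sequencing chips by microscopy, with normalized cluster intensities fitted with a binding model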
Procedure: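 RNA-MaP round R107: designed RNA switches with theophylline, tryptophan, arginine or FMN aptamers are transcribed on-chip within common flanks. They are titrated with a labelled K4 kissing-loop RNA reporter in RNA-MaP buffer (100 mM Tris pH 7.5, 80 mM KCl, 4 mM MgCl2), without ligand or with the indicated ligand. Median apparent KD per design.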

MS2 coat protein = assay: apparent KD of MS2 coat protein; designed switch direction (-1 OFF switch, 1 ON switch): -1; higher = weaker reporter binding; details: Eterna round: R95
Method in brief: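 RNA switches sharing common flanks were transcribed by stalled E. coli RNA polymerase on Illumina chips. A doubling series of SNAP-549-labelled MS2 coat protein, from 0.7 or 1.5 nM to 3 µM, was applied in Tris-HCl pH 7.5 buffer with KCl, MgCl2, BSA, DTT, tRNA and Tween-20. Each step lasted 0.8–1.5 h at the bottom of the series and 10–20 min at the top. Normalised cluster fluorescence was curve-fitted, giving apparent KD as the per-design median over clusters.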

[2] = input ligand: theophylline 20 uM
[3] = input ligand: tryptophan 2.4 mM
[4] = input ligand: microRNA oligo, concentration not stated

AAAACGCUGGAUGAAUAACAUCUAGCGAAUCGAGGACCGGUACGGCCGCCACUCGGAGCUAAACUGCGAGUGAUGUUCGUAAAAU [Mat - Mod of OpenEnded 3 - D18]
apparent KD of K4 kissing-loop reporter ([1]; input ligand: FMN 200 uM): 405 nM
apparent KD of K4 kissing-loop reporter ([1]; input ligand: arginine 13.2 mM): 223 nM
apparent KD of K4 kissing-loop reporter ([1]; input ligand: none): 588 nM
apparent KD of K4 kissing-loop reporter [1, 2]: 426 nM
apparent KD of K4 kissing-loop reporter [1, 3]: 428 nM

AAAAGCCUACAGGAUACCAGCCGAAUACUAAAAGGCUGGAGUGAUGUUCCAGCUUGCCGCGGCCCUUGGCAGCCUAGCUGGGUGA [Soatriti]
apparent KD of K4 kissing-loop reporter ([1]; input ligand: FMN 200 uM): 248 nM
apparent KD of K4 kissing-loop reporter ([1]; input ligand: arginine 13.2 mM): 258 nM
apparent KD of K4 kissing-loop reporter ([1]; input ligand: none): 507 nM
apparent KD of K4 kissing-loop reporter [1, 2]: 341 nM
apparent KD of K4 kissing-loop reporter [1, 3]: 286 nM

AAAAUAAACCAGUGAUGUUGGUAACCAGAUACCAGCGACGAAAGUCGCCCUUGGCAGCUGUGGACGUACAAAAUAAGUACGUCCU
apparent KD of K4 kissing-loop reporter ([1]; input ligand: FMN 200 uM): 218 nM
apparent KD of K4 kissing-loop reporter ([1]; input ligand: arginine 13.2 mM): 264 nM
apparent KD of K4 kissing-loop reporter ([1]; input ligand: none): 257 nM
apparent KD of K4 kissing-loop reporter [1, 2]: 223 nM
apparent KD of K4 kissing-loop reporter [1, 3]: 199 nM

AAAAUAAACCAGUGAUGUUGGUAUCCGGAUACCAGCGAUAAUCAUCGCCCUUGGCAGCCGCGGACGUACAAAAUAAGUACGUCCU [MatMod 14 - Jieux - Same State - Theophylline A]
apparent KD of K4 kissing-loop reporter ([1]; input ligand: FMN 200 uM): 208 nM
apparent KD of K4 kissing-loop reporter ([1]; input ligand: arginine 13.2 mM): 135 nM
apparent KD of K4 kissing-loop reporter ([1]; input ligand: none): 175 nM
apparent KD of K4 kissing-loop reporter [1, 2]: 268 nM
apparent KD of K4 kissing-loop reporter [1, 3]: 182 nM

AAAAUAAAGCAGUGAUGUUGCAUAUGAGAAGGAGCGCACGAAAGUGCAGGUAGGUCGCUCAGCCAAGUGGACGAAAACGUCCACA [#OpenEnded 9 #K4Early]
apparent KD of K4 kissing-loop reporter ([1]; input ligand: FMN 200 uM): 107 nM
apparent KD of K4 kissing-loop reporter ([1]; input ligand: arginine 13.2 mM): 172 nM
apparent KD of K4 kissing-loop reporter ([1]; input ligand: none): 119 nM
apparent KD of K4 kissing-loop reporter [1, 2]: 168 nM
apparent KD of K4 kissing-loop reporter [1, 3]: 93.7 nM

AAAAUAAAUCAGUGAUGUUGGUAUCCGGAUACCAGCGAUAAUCAUCGCCCUUGGCAGCCGUGGACGUACAAAAUAAGUACGUCCU [MatMod 16 - Jieux - Same State - Theophylline A]
apparent KD of K4 kissing-loop reporter ([1]; input ligand: FMN 200 uM): 137 nM
apparent KD of K4 kissing-loop reporter ([1]; input ligand: arginine 13.2 mM): 104 nM
apparent KD of K4 kissing-loop reporter ([1]; input ligand: none): 168 nM
apparent KD of K4 kissing-loop reporter [1, 2]: 171 nM
apparent KD of K4 kissing-loop reporter [1, 3]: 183 nM

AAAAUAACCCAGUGAUGUUGGUCUCCAGAUACCAGCGACGAAAGUCGCCCUUGGCAGCUGUGGACGUACAAAAUAAGUACGUCCU
apparent KD of K4 kissing-loop reporter ([1]; input ligand: FMN 200 uM): 661 nM
apparent KD of K4 kissing-loop reporter ([1]; input ligand: arginine 13.2 mM): 629 nM
apparent KD of K4 kissing-loop reporter ([1]; input ligand: none): 776 nM
apparent KD of K4 kissing-loop reporter [1, 2]: 485 nM
apparent KD of K4 kissing-loop reporter [1, 3]: 558 nM

UUUUAACAUGAGGAUCACCCAUGUGAGGAUAUCAUUUUUUUUUUUUUUUUUUUUUUUUUGAGAAGGCACAUUUU [My solution] (puzzle: Exclusion 1)
apparent KD of MS2 coat protein (MS2 coat protein; input ligand: FMN 200 uM): 11.9 nM
apparent KD of MS2 coat protein (MS2 coat protein; [4]): 37 nM
apparent KD of MS2 coat protein (MS2 coat protein; input ligand: none): 14.2 nM

UUUUAACAUGAGGAUCACCCAUGUGAGGAUAUCGAAAUUUAUAUUAAUAUUAAUUAAACGAGAAGGCACAUUUU [JMF 27] (puzzle: Exclusion 1)
apparent KD of MS2 coat protein (MS2 coat protein; [4]): 72.5 nM

UUUUAACAUGAGGAUCACCCAUGUGAGGAUAUCGAAAUUUAUAUUAAUAUUAUUUAAUCGAGAAGGCACAUUUU [JMF 44] (puzzle: Exclusion 1)
apparent KD of MS2 coat protein (MS2 coat protein; [4]): 100 nM

UUUUAACAUGAGGAUCACCCAUGUGAGGAUAUCGAAAUUUAUAUUAAUAUUAUUUUAUCGAGAAGGCACAUUUU [JMF 48] (puzzle: Exclusion 1)
apparent KD of MS2 coat protein (MS2 coat protein; [4]): 122 nM

UUUUAACAUGAGGAUCACCCAUGUGAGGAUAUCGAAAUUUAUAUUUAUAUUAAUAUUACGAGAAGGCACAUUUU [JMF 82] (puzzle: Exclusion 1)
apparent KD of MS2 coat protein (MS2 coat protein; [4]): 89.6 nM
